We go through one molecule from PMC2139968 (The Journal of Cell Biology, 1997).

The assay has as its target F-actin (rabbit, UniProt P68135 1-377). The experiment in a line: co-sedimentation.

B1: His6-neurabin (natural protein)
chain: not shown
In the case of B1, the “stoichiometry N” value was ~8 actin molecules per His6-neurabin molecule.
